This passage reports ratio to parent results from PMC11480844 (2024).

The chains are these.
B1: H2-Kb / Ed31 (parent complex)
chain 1: GQQVQQSPASLVLQEGENAELQCNFSTSLNSMQWFYQRPGGSLVSLFYNPSGTKHSGRLTSTTVIKERRSSLHISSSQTTDSGTYLCALEGNYAQGLTFGLGTRVSVFP
chain 2: ETAVFQTPNYHVTQVGNEVSFNCKQTLGHDTMYWYKQDSKKLLKIMFSYNNKQLIVNETVPRRFSPQSSDKAHLNLRIKSVEPEDSAVYLCASRSAGEQYFGPGTRLTVL
chain 3: not shown
chain 4: IQKTPQIQVYSRHPPENGKPNILNCYVTQFHPPHIEIQMLKNGKKIPKVEMSDMSFSKDWSFYILAHTEFTPTETDTYACRVKHDSMAEPKTVYWDRDM
chain 5: SIINFEKL
B2: H2-Kb / Ed46 (parent complex)
chain 1: AQSVTQPDARVTVSEGASLQLRCKYSYFGTPYLFWYVQYPRQGLQLLLKYYPGDPVVQGVNGFEAEFSKSNSSFHLRKASVHWSDWAVYFCAVGRTGGYKVVFGSGTRLLVSP
chain 2: DSGVVQSPRHIIKEKGGRSVLTCIPISGHSNVVWYQQTLGKELKFLIQHYEKVERDKGFLPSRFSVQQFDDYHSEMNMSALELEDSAMYFCASSPRHSDYTFGSGTRLLVI
chain 3: not shown
chain 4: B1 chain 4
chain 5: SIINFEKL
Further: test concentration or dose not given here.

The variants in the first experiment derive from B1. The experiment in a line: % of reporter cells activated (NFAT-GFP), raw.
Consider chain 5 N4C, for which the ratio to parent was 0.031. The same measure, in the same setting: the same measure for chain 5 N4K: 0.0359; for chain 5 N4A: 0.0503; for chain 5 N4Q: 0.583. For the variant chain 5 N4I, the ratio to parent was 0.484. The same measure, in the same setting: the same measure for chain 5 N4S: 0.00781; for chain 5 N4G: 0.083; for chain 5 N4E: 0.0188.

For chain 5 N4F, the ratio to parent amounted to 0.127. As for chain 5 N4P, the ratio to parent was 0.0223.

chain 5 N4V: the ratio to parent is 0.132. Still for that read-out and setting: the same measure for chain 5 N4T: 0.156. On the same count and under the same terms, the same measure for chain 5 N4R: 0.0703; for chain 5 N4L: 0.198.

chain 5 S1W: the ratio to parent was 0.498. The same measure, in the same setting: for chain 5 S1A the value was 0.803. The same measure, in the same setting: the same measure for chain 5 S1L: 0.46; for chain 5 S1C: 0.44; for chain 5 S1P: 0.658. Take chain 5 S1Q: the ratio to parent is 0.757.

As to chain 5 S1N, the ratio to parent turned out to be 0.163. The same measure, in the same setting: for chain 5 S1R the value was 0.532; for chain 5 S1K, 0.757.

Turning to chain 5 S1M, the ratio to parent is 0.898. Still for that read-out and setting: for chain 5 S1F the value was 0.459; for chain 5 I3W, 0.355. With chain 5 I3L, the ratio to parent worked out at 1.02. Same read-out and setting: for chain 5 I3H the value was 0.183; for chain 5 I3V, 0.982.

chain 5 I3R: the ratio to parent stood at 0.0501. On the same count and under the same terms, the same measure for chain 5 I3A: 0.523; for chain 5 I3D: 0.375. For the variant chain 5 I3E, the ratio to parent turned out to be 0.499. The same measure, in the same setting: for chain 5 I3G the value was 0.309.

Take chain 5 I3Q: the ratio to parent is 0.272. Same read-out and setting: for chain 5 I3T the value was 0.548; for chain 5 I3P, 0.894.

As to chain 5 I3M, the ratio to parent was 0.563. Still for that read-out and setting: the same measure for chain 5 I2M: 1.07.

As for chain 5 I2V, the ratio to parent came out at 1.07.

For chain 5 I2E, the ratio to parent worked out at 1.11. In the case of chain 5 I2R, the ratio to parent came out at 0.851. Still for that read-out and setting: for chain 5 I2F the value was 0.795; for chain 5 I2Q, 0.897. The same measure, in the same setting: for chain 5 I2C the value was 1.07; for chain 5 I2W, 0.863; for chain 5 I2T, 1.09. Still for that read-out and setting: the same measure for chain 5 L8F: 0.891. Take chain 5 L8W: the ratio to parent was determined as 0.766. On the same count and under the same terms, the same measure for chain 5 L8R: 0.791; for chain 5 L8E: 0.687. As to chain 5 L8V, the ratio to parent worked out at 0.812. For chain 5 L8Y, the ratio to parent came to 0.922. Same read-out and setting: the same measure for chain 5 L8N: 0.69; for chain 5 L8P: 0.779; for chain 5 L8C: 0.602. Still for that read-out and setting: the same measure for chain 5 L8S: 0.762; for chain 5 L8I: 0.968. Still for that read-out and setting: the same measure for chain 5 L8T: 0.862. Regarding chain 5 L8A, the ratio to parent was determined as 0.898.

As to chain 5 L8Q, the ratio to parent was determined as 0.876. In the case of chain 5 L8H, the ratio to parent worked out at 0.802. Turning to chain 5 E6Y, the ratio to parent is 0.0864. Still for that read-out and setting: the same measure for chain 5 E6N: 0.0136; for chain 5 E6D: 0.458; for chain 5 E6G: 0.435. chain 5 E6A: the ratio to parent was determined as 0.0173. Still for that read-out and setting: for chain 5 E6H the value was 0.174; for chain 5 E6V, 0.00379; for chain 5 E6W, 0.00233. With chain 5 E6F, the ratio to parent came to 0.0115.

As to chain 5 E6S, the ratio to parent was found to be 0.00329. On the same count and under the same terms, the same measure for chain 5 E6P: 0.0101; for chain 5 E6R: 0.00349.

chain 5 E6T: the ratio to parent amounted to 0.00208. Still for that read-out and setting: the same measure for chain 5 E6M: 0.25; for chain 5 F5W: 0.829; for chain 5 F5H: 0.892. Still for that read-out and setting: the same measure for chain 5 F5Y: 1.11; for chain 5 F5R: 0.635; for chain 5 F5I: 0.496. Still for that read-out and setting: for chain 5 F5A the value was 0.866; for chain 5 F5Q, 0.49; for chain 5 F5V, 0.859. As to chain 5 F5G, the ratio to parent was 0.529. The same measure, in the same setting: for chain 5 F5D the value was 0.536; for chain 5 F5M, 0.917; for chain 5 F5L, 0.821. Take chain 5 K7L: the ratio to parent is 0.141.

Consider chain 5 K7P, for which the ratio to parent was found to be 0.298. The same measure, in the same setting: for chain 5 K7Y the value was 0.167; for chain 5 K7W, 0.542. Still for that read-out and setting: for chain 5 K7S the value was 0.614; for chain 5 K7R, 0.698. With chain 5 K7V, the ratio to parent came out at 0.247. Still for that read-out and setting: for chain 5 K7E the value was 0.0194; for chain 5 K7F, 0.0347; for chain 5 K7N, 0.185.

For the variant chain 5 K7M, the ratio to parent was determined as 0.104. For chain 5 K7T, the ratio to parent amounted to 0.102. The same measure, in the same setting: the same measure for chain 5 K7D: 0.167.

Variants of B2 are the subject of the next experiment. The experiment in a line: % of reporter cells activated (NFAT-GFP), raw.
In the case of chain 5 I2F, the ratio to parent was determined as 1.13. Same read-out and setting: the same measure for chain 5 I2R: 1.11; for chain 5 I2N: 0.898.

Regarding chain 5 I2T, the ratio to parent amounted to 1.39. The same measure, in the same setting: for chain 5 I2A the value was 1.4; for chain 5 I2Y, 0.656; for chain 5 S1C, 0.0634. The same measure, in the same setting: for chain 5 S1A the value was 0.746; for chain 5 S1H, 0.973. On the same count and under the same terms, for chain 5 S1N the value was 0.0395; for chain 5 S1V, 0.0256; for chain 5 S1T, 0.278.

Turning to chain 5 S1P, the ratio to parent was determined as 0.0427. The same measure, in the same setting: the same measure for chain 5 K7Q: 0.0775; for chain 5 K7I: 0.2; for chain 5 K7C: 0.0252. Same read-out and setting: the same measure for chain 5 K7W: 0.628; for chain 5 K7E: 0.00395; for chain 5 K7N: 0.138. The same measure, in the same setting: for chain 5 K7L the value was 0.178. For the variant chain 5 N4Y, the ratio to parent stood at 0.0186. On the same count and under the same terms, the same measure for chain 5 N4M: 0.00538; for chain 5 N4R: 0.317; for chain 5 N4T: 0.00841. The same measure, in the same setting: the same measure for chain 5 N4P: 0.00841; for chain 5 N4K: 0.027. Same read-out and setting: for chain 5 N4W the value was 0.0119; for chain 5 N4L, 0.0593. With chain 5 F5C, the ratio to parent was determined as 1.19. Regarding chain 5 F5M, the ratio to parent is 1.02.

On to chain 5 F5S, for which the ratio to parent was 1.32. For the variant chain 5 F5R, the ratio to parent was 1.18. Same read-out and setting: for chain 5 F5L the value was 1.17. On the same count and under the same terms, the same measure for chain 5 L8K: 1.09. Consider chain 5 L8I, for which the ratio to parent stood at 1.07.

On to chain 5 L8Y, for which the ratio to parent turned out to be 1.07. For chain 5 L8A, the ratio to parent was 0.861. On to chain 5 L8C, for which the ratio to parent is 0.613. The same measure, in the same setting: the same measure for chain 5 I3H: 0.998; for chain 5 I3R: 0.245. Same read-out and setting: for chain 5 I3E the value was 0.47; for chain 5 I3M, 0.446. Turning to chain 5 I3Y, the ratio to parent was 1.08. On to chain 5 I3D, for which the ratio to parent was determined as 0.17. The same measure, in the same setting: the same measure for chain 5 I3G: 0.202; for chain 5 I3K: 0.924. The same measure, in the same setting: the same measure for chain 5 E6L: 0.16; for chain 5 E6A: 0.534. On the same count and under the same terms, the same measure for chain 5 E6W: 0.038.
